Results taken from US8691225B2, “Antibodies against the ectodomain of ErbB3 and uses thereof” (Merrimack Pharmaceuticals, Inc., priority 2007, dated 2014).

Legend:
[1] = target: T1, ErbB3 receptor on the surface of MALME-3M cells (Homo sapiens, UniProt P21860); test: cell surface fluorescence quenching assay (timecourse of ErbB3 downregulation); format: cell-based
T1 construct: ErbB3 expressed on MALME-3M melanoma cells; host or cells: MALME-3M melanoma cells
Method: In order to determine whether this downregulation of ErbB3 is due to internalization of the ErbB3 receptor on the surface of MALME-3M cells, a cell surface fluorescence quenching assay is preformed. MALME-3M cells are plated overnight on 6-well plates (0.2×10^6 per well) in RPMI+10% FBS. The following day, old medium is removed and cells are preincubated for 60 minutes on ice in RPMI+2% FBS containing 100 nM of Ab#6 conjugated to the fluorescent dye Alexa 488. Cells are then returned to a 37° C. incubator and incubated for 0.5 h, 2 h or 24 h. At the end of each timepoint, cells are trypsinized, washed with PBS+2% BSA+0.1% sodium azide (FACS stain buffer) and stored on ice until all samples are ready. For a Oh timepoint, cells are immediately trypsinized after the 60 minute preincubation and stored on ice. […] One set of tubes is incubated with 25 ug/ml anti-Alexa 488 antibody for 60 minutes on ice to quench any fluorescence source (i.e., Alexa 488-conjugated Ab#6) on the cell surface. […] For each sample 10,000 events are collected and analyzed with a FACSCALIBUR flow cytometer. This protocol gives an indication of what proportion of AB #6 (as measured by fluorescence) remains on the cell surface (indicated by the differential between the fluorescence of the quenched and unquenched cells at each timepoint) and how much is internalized (indicated by the level of fluorescence of quenched cells).

[2] = target: T2, heregulin binding to ErbB3 on MALME-3M cells (Homo sapiens, UniProt P21860); test: biotinylated heregulin binding to MALME3M cells by FACS; format: cell-based; conditions: 5 μM antibody, 20 nM heregulin EGF
T2 construct: ErbB3 expressed on MALME-3M melanoma cells; host or cells: MALME-3M melanoma cells
Method: After 30 minutes, 50 μl of 40 nM biotinylated heregulin EGF is added to the cells and incubated for another 10 minutes on ice. This yields a final concentration of 5 μM antibody and 20 nM heregulin EGF. Cells are then washed twice with 500 μl BD stain buffer and incubated with 100 μl of a 1:200 dilution of streptavidin-PE (PE=phycoerythrin) (Invitrogen) in BD stain buffer for 45 minutes. Finally, cells are washed twice, resuspended in 300 μl of BD stain buffer and analyzed in a FACSCALIBUR flow cytometer. As a positive control, 1×10^5 MALME3M cells are incubated with 20 nM heregulin EGF for 10 minutes on ice, washed twice and incubated with a 1:200 dilution of streptavidin-PE for 45 minutes. In order to assess background staining from the streptavidin-PE conjugate, 1×10^5 MALME3M cells are incubated with 100 μl of a 1:200 dilution of streptavidin-PE only for 45 minutes.

[3] = test system: COLO-357 cells; test: VEGF secretion assay (VEGF ELISA); format: cell-based, human; conditions: untreated and HRG treated COLO-357
Source text: (§1) In contrast, HRG is able to induce more than a doubling of VEGF secretion in MCF-7 and T47D cells.

[4] = test system: MCF-7 cells; test: VEGF secretion assay (VEGF ELISA); format: cell-based, human; conditions: untreated and HRG treated MCF-7
Source text: as §1

[5] = target: T3, ErbB2/3 complex in AdrR cells (Homo sapiens, UniProt P21860); test: ErbB2-ErbB3 protein complex formation (immunoprecipitation, blot); format: cell-based; conditions: 250 nM Ab #6, 10 nM HRG
T3 construct: host or cells: AdrR ovarian cancer cells
Method: The cells are lysed in 25 mM Tris, pH+7.5, 150 mM NaCl, 1 mM EDTA, 1.0% Triton X-100, 1.0% CHAPS, 10% v/v glycerol, containing 0.2 mM PMSF, 50 mTU/mL aprotinin, and 100 uM leupeptin, and the crude lysate are centrifuged briefly to remove insoluble material. Supernatant is transferred to a new EPPENDORF tube, and anti-ErbB3 antibody (Santa Cruz sc-285) is added at 1:500 dilution. Supernatants are incubated overnight with gentle shaking at 4 C. 60 ul of Immobilized Protein A/G agarose beads (Pierce, Rockford, Ill., #20421) is first washed with 1× PBS. The cell lysate-antibody mixture is added to the PBS washed beads, and incubated for 2 hours with gentle shaking at 4° C. The immunoprecipitates are then washed with ice-cold lysis buffer 3 times, resuspended in 30 ul of 2× SDS sample buffer, heat denatured at 95° C. for 7 minutes and run on 4-12% Bis-Tris Gels. SDS-PAGE and electro-transferred to PVDF membrane in Tri-Glycine buffer with 10% MeOH. […] The signal is detected using goat anti-rabbit IRDye800® infrared fluorescent dye-conjugated secondary antibody at 1:5000 (2 ul) in 10 ml of blocking buffer (Li-Cor Biosciences, #927-40000).

[6] = test system: ACHN (a renal tumor cell line) xenograft tumors; test: ACHN xenograft combination therapy; format: in vivo, mouse; conditions: Ab #6 300 μg IP every three days; erlotinib 25 mg/kg orally once daily
Method: In a first experiment, mice bearing ACHN (a renal tumor cell line) xenograft tumors are prepared by establishing tumors subcutaneously in the flanks of nude mice (Charles River Laboratories).

[7] = test system: DU145 (a prostate tumor cell line) xenograft tumors; test: DU145 xenograft combination therapy; format: in vivo, mouse; conditions: Ab #6 300 μg IP every three days; taxol 20 mg/kg IP once per week
Method: In a second experiment, mice bearing DU145 (a prostate tumor cell line) xenograft tumors are prepared by establishing tumors subcutaneously in the flanks of nude mice (Charles River Laboratories). […] Again, tumor size is measured twice a week and measurements are used to calculate tumor volume.

B1: Ab #6: human anti-ErbB3 antibody from Fab-phage library, CDRs SEQ ID NOs:7-12; used as IgG1 and IgG2 isotypes; in phase I trials as MM-121 (antibody, V domains shown)
VH: EVQLLESGGGLVQPGGSLRLSCAASGFTFSHYVMAWVRQAPGKGLEWVSSISSSGGWTLYADSVKGRFTISRDNSKNTLYLQMNSLRAEDTAVYYCTRGLKMATIFDYWGQGTLVTVSS
VL: QSALTQPASVSGSPGQSITISCTGTSSDVGSYNVVSWYQQHPGKAPKLIIYEVSQRPSGVSNRFSGSKSGNTASLTISGLQTEDEADYYCCSYAGSSIFVIFGGGTKVTVL
downregulation of cell surface ErbB3 receptors ([1]; after about 30 minutes): about 50%
downregulation of cell surface ErbB3 receptors ([1]; at about 24 hours): about 93%
inhibition of heregulin binding to ErbB3 [2]: able to inhibit heregulin binding to ErbB3
inhibition of VEGF secretion [3]: potent inhibitory effect at high levels in all three cell lines with the highest being in COLO-357
inhibition of VEGF secretion [4]: potent inhibitory effect at high levels in all three cell lines
inhibition of HRG stimulated ErbB2/3 complex formation [5]: completely inhibit HRG stimulated ErbB2/3 complex formation
inhibition of tumor growth (tumor volume) [6]: inhibit tumor growth
inhibition of tumor growth (tumor volume) [7]: inhibited tumor growth
